Consider five substances from paper PMC4944982.

What is called IC50 is the point on the concentration scale where inhibition reaches its midpoint. The term Kd denotes the concentration at which binding is half-saturated.

Assay [1] concerns the target endogenous FGF receptor of untransfected HEK293T cells (human (endogenous in HEK293T)) (UniProt P11362).
The target is the same in assay [2]. Description: bioluminescent (NanoLuc) competition binding on living cells; untransfected HEK293T cells in suspension in a 96-well filtration plate; constant FGF2-Luc as tracer and various concentrations of wild-type or mutant FGF2 in serum-free DMEM plus 1% BSA and 5 μg/ml heparin, 20°C, 2–3 h.
Assay [3] deals with human FGFR1 (transcript variant 2), overexpressed on HEK293T cells (human) (UniProt P11362). Description: bioluminescent (NanoLuc) competition binding on living cells; adherent HEK293T cells transiently overexpressing human FGFR1; constant FGF2-Luc as tracer and various concentrations of wild-type or mutant FGF2 in serum-free DMEM plus 1% BSA and 5 μg/ml heparin, 20°C, 2–3 h.
The target of assay [4] is endogenous FGF receptor of untransfected HEK293T cells (human (endogenous in HEK293T)) (UniProt P11362). Description: bioluminescent (NanoLuc) saturation binding on living cells; untransfected HEK293T cells in suspension in a 96-well filtration plate; various concentrations of FGF2-Luc in serum-free DMEM plus 1% BSA and 5 μg/ml heparin, 20°C, 2–3 h; nonspecific binding with 250 nM 6×His-FGF2; one-site model.

Assay [5] addresses human FGFR1 (transcript variant 2), overexpressed on HEK293T cells (human) (UniProt P11362). The assay is described as follows: bioluminescent (NanoLuc) saturation binding on living cells; adherent HEK293T cells transiently overexpressing human FGFR1 in 96-well plates; various concentrations of FGF2-Luc in serum-free DMEM plus 1% BSA and 5 μg/ml heparin, 20°C, 2–3 h; nonspecific binding with 250 nM 6×His-FGF2; one-site model.

On to 6×His-FGF2 (ligand), for which the EC50 of activation of a serum response element (SRE)-controlled NanoLuc reporter in HEK293T cells in assay [1] was determined as 0.058 nM. For the same substance, the IC50 in assay [2] was determined as 0.081 nM; in assay [3], 0.65 nM.
6×His-[C95S]FGF2 (ligand) came in with an EC50 of activation of a serum response element (SRE)-controlled NanoLuc reporter in HEK293T cells in assay [1] of 0.1 nM.
On to 6×His-[Y32A]FGF2 (ligand), for which the EC50 of activation of a serum response element (SRE)-controlled NanoLuc reporter in HEK293T cells in assay [1] amounted to 0.309 nM. In addition, the IC50 in assay [2] is 5.4 nM; in assay [3], 3.45 nM.
In assay [1], 6×His-[Y111A]FGF2 (ligand) had an EC50 of activation of a serum response element (SRE)-controlled NanoLuc reporter in HEK293T cells of 0.794 nM. For the same substance, the IC50 in assay [2] turned out to be 10 nM; in assay [3], 5.88 nM.
For the substance “NanoLuc-conjugated FGF2 (FGF2-Luc) (ligand)”, the Kd in assay [4] is 0.025 nM; in assay [5], 0.161 nM.
